The assay deals with T1, 带有His标签的人LAG-3蛋白的胞外结构域(Acro) (human, UniProt P18627 23-450).
T1 construct: extracellular domain; Bought protein (Acro); also called Human-LAG-3-His; 抗原; not shown: His tag
T1 sequence (looked up): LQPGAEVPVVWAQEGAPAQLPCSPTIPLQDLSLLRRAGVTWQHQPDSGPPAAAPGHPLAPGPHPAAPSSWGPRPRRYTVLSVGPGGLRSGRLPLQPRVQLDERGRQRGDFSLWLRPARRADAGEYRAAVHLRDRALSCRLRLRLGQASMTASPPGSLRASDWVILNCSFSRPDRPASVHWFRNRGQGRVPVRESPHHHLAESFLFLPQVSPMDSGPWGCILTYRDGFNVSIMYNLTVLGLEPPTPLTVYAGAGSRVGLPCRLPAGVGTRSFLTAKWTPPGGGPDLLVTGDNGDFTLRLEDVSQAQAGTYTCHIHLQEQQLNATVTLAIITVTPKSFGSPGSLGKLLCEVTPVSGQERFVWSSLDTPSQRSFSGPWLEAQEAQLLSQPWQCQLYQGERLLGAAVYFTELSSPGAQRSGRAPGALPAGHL
The experiment in a line: SPR (Biacore), supernatant captured on Protein A chip, 100 nM human LAG-3 as analyte, 1:1 fit. For orientation: Surface plasmon resonance follows binding to a sensor surface in real time, without labels.

Data on three molecules can be found in patent CN112010972A (REYOUNG SUZHOU BIOPHARMACEUTICAL CO LTD, dated 2020).

B1: 抗LAG-3人鼠嵌合抗体 17E3VL-17E3VH (antibody, V domains shown)
VH: EVMLVESGGGLVKPGGSLKLSCAASGFTFITYAMSWVRQTPEKRLEWVASINNGGTHYPDTMKGRFTISRDNARNILYLQMSSLRSEDTAMYYCARSYNGIPHYFDYWGQGTTLTVSS
VL: DILMTQTPASLAVSLGQRATISCRTSESIDNYGVSFMNWFQQKPGQPPRLLIYAASNQGSGVPARFSGSGSGADFSLNIHPMEEDDSALYFCQQSKEVPFTFGSGTKLEIKR
B1: the Kd (usually the free concentration of one partner at which half of the binding sites on the other are occupied at equilibrium, for simple one-to-one binding) was roughly 0.1 nM.

B2: 抗LAG-3人鼠嵌合抗体 29VL-17E3VH (antibody, V domains shown)
VH: EVMLVESGGGLVKPGGSLKLSCAASGFTFITYAMSWVRQTPEKRLEWVASINNGGTHYPDTMKGRFTISRDNARNILYLQMSSLRSEDTAMYYCARSYNGIPHYFDYWGQGTTLTVSS
VL: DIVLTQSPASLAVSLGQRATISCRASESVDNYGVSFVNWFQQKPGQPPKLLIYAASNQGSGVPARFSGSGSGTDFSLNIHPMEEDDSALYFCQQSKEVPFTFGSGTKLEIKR
In the case of B2, the Kd is roughly 0.1 nM.

B3: 抗LAG-3人鼠嵌合抗体 78H3VL-78H3VH (antibody, V domains shown)
VH: EVQLQQSGPVLAKPGASVKMSCKTSGYTLTDYYMNWVKQSHGKSLEWIGIINPYNGDTSYNQRFKGKATLTVDKSSSTAYMELNSLTSEDSAVYYCARDDGYYVDYFDYWGQGTTLTVSS
VL: DIQMTQSPSSLSASLGERVSLTCRASQDIGNSLNWLQQEPDGTIKRLIYATSSLDSGVPKRFSGSRSGSDYSLTISSLESEDFVDYYCLQHASSPPTFGAGTKLELKR
With B3, the Kd is roughly 0.1 nM.
